This note sets out measurements from article PMC6651182, “Importance of the Choice of a Recombinant System to Produce Large Amounts of Functional Membrane Protein hERG” (International Journal of Molecular Sciences, 2019).

For data set [1], the target named is T1, hERG(S1-coil) (Homo sapiens, UniProt Q12809, N598Q).
T1 construct: hERG(362-675) + coiled-coil
The data set can be described thus: Electrophysiology on planar lipid bilayers with purified hERG(S1-coil) (stable HEK, DDM). It is filed as biochemical. The following applies: samples pre-incubated with 10 µM toxin; lipid bilayer; data not shown. As for the experimental part:
Crude membranes prepared from P. pastoris, Sf9 or stable HEK cells expressing hERG(S1-coil) were solubilized in 50 mM HEPES, pH 7.5, 300 mM KCl containing 1% DPC or DDM and 0.2% cholesteryl-hemisuccinate (CHS, Sigma Aldrich) at slow rotation at +4 °C for 1 h. Samples were centrifuged at 25,000 g for 15 min at +4 °C. […] After transferring to a column and washing the resin with 15 CV of 50 mM HEPES, pH 7.5, 300 mM KCl, 50 mM imidazole, 0.1% (w/v) DPC and 0.02% (w/v) CHS, hERG(S1-coil) was eluted with 250 mM imidazole in the same buffer. For purification of hERG(S1-coil) overexpressed in Sf9 cells in DPC, the supernatant was diluted 2-fold in 50 mM HEPES, pH 7.5 and transferred to a Strep-Tactin column (Strep-TactinSuperflow, IBA, Göttingen, Germany) at a ratio of 1 mL resin for 100 mL supernatant. […] Purified samples were analysed by SDS-PAGE and Western blot and protein concentrations determined by BCA assay.
Planar lipid bilayers were formed at room temperature by painting a solution of azolectin (Type IVS, Sigma Aldrich) at 45 mg/mL in decane across a 200 µm aperture in a polysulfonate cup (Warner Instruments, Hamden, CT, USA) separating two chambers. […] A total of 500 ng of chimeric hERG protein was added in the cis chamber and the resulting channel activity recorded for at least 2 min. […]
(In general: Block of hERG is tested as a sign of cardiac risk.)

In data set [2] the target is hERG-wt (Homo sapiens, UniProt Q12809). The data set is described as follows: Two-electrode voltage clamp in Xenopus oocytes, inhibition of hERG-wt tail current. The following applies: mean ± SEM, n = 7. (In general: Two-electrode voltage clamp holds a large cell at a set potential and records current.)
Experimental: (§1) (A). Current-voltage relationship for hERG-wt and hERG(S1-coil). Currents measured at the end of a 4 seconds long depolarizing pulse (from −70 to 30 mV) were normalized to the maximal current for hERG-wt (n = 21) and hERG(S1-coil) (n = 19). (B). Steady-state voltage-dependence of activation. […] (C).
(§2) Stage V–VI oocytes were removed from female Xenopus under tricaine anaesthesia. […] After intensive washing with OR2 solution, oocytes were injected with RNA preparation (about 30 nL per oocyte) and recorded 2–5 days after injection. Currents were recorded at room temperature using the two-electrode voltage clamp method. Electrodes were pulled from borosilicate glass and filled with 3 M KCl. Currents were measured by a Geneclamp 500 amplifier (Molecular Devices, San Jose, CA, USA) and digitized by a Digidata 1200 converter (Molecular Devices) using Clampex 5 software (Molecular Devices). […] We determined the concentration to obtain the half maximal inhibition (IC50) by measuring the peak tail current recorded during the second pulse at −50 mV in the presence of increasing concentrations of inhibitor and normalized the value to the current measured in the absence of inhibitor. […] The significance of the difference between two results was determined using the unpaired Student’s test set at the 0.01 level.
Data set [3] has as its target hERG(S1-coil) (Homo sapiens, UniProt Q12809). The data set is described as follows: Two-electrode voltage clamp in Xenopus oocytes, inhibition of hERG(S1-coil) tail current. The conditions noted are these: mean ± SEM, n = 8.
Experimental: as §1, §2

As for “BeKm-1 (RPTDIKCSESYQCFPVCKSRFGKTNGRCVNGFCDCF; UniProt Q9BKB7 22-57, looked up)”, the “current at −100 mV” value in data set [1] is recorded as “did not have any current”. In addition, the values for the IC50 in data set [2] and in data set [3] were 21.7 ± 2.76 nM and 24.9 ± 3.77 nM, respectively.

As a reminder, the IC50 is the concentration needed to halve the response being measured. A low value points to higher potency.
